{"source": "patent US20150082475", "proteins": {"B1": {"name": "recombinant OsPSTOL1 (OsPSTOL1rec) (protein)", "chain": "MLLCQRASKNAPRIESFLQKQETSNPKRYTLSEVKRMTKSFAHKLGRGGFGTVYKGSLPDGREIAVKMLKDTKGDGEEFINEVAGISKTSHINVVNLLGFSLQGSKRALIYEYMPNGSLDRYSFGDSSVQGDNTLSWDRLFNIIVGIARGLEYLHCHCNIRIVHFDIKPQNILLAQDFCPKISDFGLSKLCHLKESRISINGLRGTPGYIAPEVFSRQYGSASSKSDVYSYGMVVLEMAGAKKNINVSTGSSSKYFPQWLYDNLDQFCCPTGEISSQTTDLVRKMVVVGLWCIQLVPTDRPSMREVLEMLESNGRDLPLPPKGLHHHHHH"}}, "molecular_target": "light-harvesting complex II (LHCII) in thylakoids of the Arabidopsis thaliana stn7 stn8 double mutant"}
{"protein": "B1", "values": [{"measurement": "phosphorylation of LHCII, in vitro phosphorylation assay with phosphothreonine-specific immunoblot", "result": "recombinant OsPSTOL1 protein restores phosphorylation of the light-harvesting complex II (LHCII) in the Arabidopsis stn7 stn8 double mutant (lane 4)"}]}
